Results: IntAct's records for PubMed 21807993

B1: E4 ubiquitin-protein ligase UFD2 (Saccharomyces cerevisiae), P54860 (parent)
chain: MTAIEDILQITTDPSDTRGYSLLKSEEVPQGSTLGVDFIDTLLLYQLTENEKLDKPFEYLNDCFRRNQQQKRITKNKPNAESLHSTFQEIDRLVIGYGVVALQIENFCMNGAFINYITGIVSNVNSYTDFLSQIIQRAILEGTALDLLNAVFPTLLEYCNKHVSHFDLNESVIYNNVLTIFELFVTFKPIAEIFTKIDGFFADYSCKPQDFERKTILGPILSLSPIEAAVAIRNYGDNLLRSKQQTAMIHESLQAEHKVVIDRLFFIVDKLVRGSLNSRTDMISYFAHIANKNHLRRADHPPFKELSSNGFMSNITLLLVRFSQPFLDISYKKIDKIDANYFNNPSLFIDLSGETRLNSDFKEADAFYDKNRKTADSKPNFISDCFFLTLTYLHYGLGGTLSFEEKMGSEIKALKEEIEKVKKIAANHDVFARFITAQLSKMEKALKTTESLRFALQGFFAHRSLQLEVFDFICGASTFLIRVVDPEHEFPFKQIKLPLIPDQIGVENVDNADFLRAHAPVPFKYYPEFVVEGPVNYSLYISKYQTSPIFRNPRLGSFVEFTTMVLRCPELVSNPHLKGKLVQLLSVGAMPLTDNSPGFMMDIFEHDELVNKNLLYALLDFYVIVEKTGSSSQFYDKFNSRYSISIILEELYYKIPSYKNQLIWQSQNNADFFVRFVARMLNDLTFLLDEGLSNLAEVHNIQNELDNRARGAPPTREEEDKELQTRLASASRQAKSSCGLADKSMKLFEIYSKDIPAAFVTPEIVYRLASMLNYNLESLVGPKCGELKVKDPQSYSFNPKDLLKALTTVYINLSEQSEFISAVAKDERSFNRNLFVRAVDILGRKTGLASPEFIEKLLNFANKAEEQRKADEEEDLEYGDVPDEFLDPLMYTIMKDPVILPASKMNIDRSTIKAHLLSDSTDPFNRMPLKLEDVTPNEELRQKILCFKKQKKEEAKHKASE

Variants of: B1
Details: with cdc48_yeast CDC48, P25694
Chain of cdc48_yeast CDC48, P25694 (P25694 whole entry): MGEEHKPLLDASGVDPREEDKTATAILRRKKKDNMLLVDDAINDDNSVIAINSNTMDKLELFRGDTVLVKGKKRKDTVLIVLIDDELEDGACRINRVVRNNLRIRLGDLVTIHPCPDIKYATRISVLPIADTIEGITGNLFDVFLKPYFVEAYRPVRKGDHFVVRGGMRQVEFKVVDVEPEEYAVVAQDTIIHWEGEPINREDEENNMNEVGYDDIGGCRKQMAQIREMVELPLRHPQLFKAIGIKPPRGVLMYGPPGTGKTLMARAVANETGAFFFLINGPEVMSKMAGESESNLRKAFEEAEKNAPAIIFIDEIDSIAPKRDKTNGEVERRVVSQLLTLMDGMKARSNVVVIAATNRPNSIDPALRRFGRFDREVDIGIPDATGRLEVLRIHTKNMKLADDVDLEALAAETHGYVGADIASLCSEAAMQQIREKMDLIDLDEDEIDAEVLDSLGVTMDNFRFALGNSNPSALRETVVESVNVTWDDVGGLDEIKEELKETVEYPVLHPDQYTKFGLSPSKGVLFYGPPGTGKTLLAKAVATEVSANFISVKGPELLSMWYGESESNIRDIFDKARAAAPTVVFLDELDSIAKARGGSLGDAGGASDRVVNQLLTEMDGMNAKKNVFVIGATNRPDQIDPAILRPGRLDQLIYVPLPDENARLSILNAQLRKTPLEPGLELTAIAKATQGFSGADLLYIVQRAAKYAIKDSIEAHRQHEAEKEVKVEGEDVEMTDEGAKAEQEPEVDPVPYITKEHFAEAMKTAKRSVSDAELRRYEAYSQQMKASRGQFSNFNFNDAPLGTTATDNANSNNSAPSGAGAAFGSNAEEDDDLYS

effect of a mutation on the interaction	Variant
disrupting interaction strength	G274D
disrupting interaction strength	C385Y
